For 140 substances, amyloid nucleation score results are on record in the supplement of paper PMC12042874.

± gives the uncertainty stated by the source.

This data set is described as follows: amyloid nucleation score (Sup35N fusion, yeast selection) (log enrichment); library NNK2; higher = more nucleation; inactive = no reads after selection. In a few lines: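 After 24 hours of induction with 100 μM copper sulfate, psi-negative yeast expressing peptides of 20 random codons fused to Sup35N were grown for 7 days at 30°C on medium lacking adenine and uracil. Input and output plasmid inserts were sequenced with Illumina, and sequences with under 100 input reads were discarded. Scores for nucleation are the DiMSum log enrichment of output over input reads, centred on the mode score of non-aggregating sequences.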
Consider KSIRAYYYVSRQ, for which the amyloid nucleation score came to 0.263 ± 0.25.
The same measure for MTIVCRWR: 3.04 ± 0.16.
The same measure for MSSIDFSFCTSSLRTYSIVR: 0.155 ± 1.1.
The same measure for YGLLGFFGMQCCHNLCMYRG: 2.02 ± 0.13; for YSYVIWYMHHCFWLNLRKFM: 0.979 ± 0.67.
In the case of GNIAVYNDAILLVWDNESRT, the amyloid nucleation score was -0.714 ± 1.
The same measure for DDTLVVLPTRYLTPIWEMH: 2.4 ± 0.18.
The same measure for IEQVRDECHYTDVATLIEMM: 0.675 ± 0.24; for SKIVYFSYYTQM: 6.775 ± 0.049; for MYVFMVSFYMGFCKYQNSVI: “inactive”.
The same measure for WRDSVDTGISSGKVGGRCSE: -0.047 ± 0.27; for KICSYPR: 2.46 ± 0.11.
Substance ILISVRNYIKSEKSRNSYHK had an amyloid nucleation score of 7.673 ± 0.03.
The same measure for PGYSVVIWELSEEGTFYKRK: “inactive”; for NRLYSNRGQLNSLCISWFSG: “inactive”; for VESMILSRYLHHILRGNSLC: -1.15 ± 1.1.
The same measure for CWNDSRMCR: -0.387 ± 0.26; for INFYIDIWISIRREGFAFRP: 1.97 ± 0.25.
Take FCISFRTRSDPRSHSSGAIE: the amyloid nucleation score amounted to 0.498 ± 0.54.
The same measure for YFGFGKSGDYHHSWKRWLPR: -0.511 ± 0.35; for RLVWWVIWIPSKCMGADKNW: -0.029 ± 0.8; for NFDVNSRWDTRTCFLSWLKQ: “inactive”.
The same measure for EGYAGVVQMALFYSWANIRL: 0.194 ± 0.62; for DAMRVASEHIIVTAAAS: 2.72 ± 0.12; for CDSVVKRIFGTFAGVHLHME: -0.228 ± 1.1.
For FLVIVTVNLMYESQRMGSPV, the amyloid nucleation score entry was “inactive”.
The same measure for SAFLRIINACTATFHENSAR: “inactive”.
The same measure for YIKASKMPAEA: -0.216 ± 0.55; for SLLVDALR: 0.513 ± 0.39.
YNSVELYFACLFLAHAVLVY: the amyloid nucleation score result was “inactive”.
The same measure for GTARDGRYSSMKVSDRYFVR: “inactive”; for NKDRGGRYSICRNYANPFVA: 0.034 ± 0.29.
The same measure for FVTAKSYNVLISKGYRKELL: -0.716 ± 0.48; for SLIVAIRFTA: 2.5 ± 0.24; for DMSNQFYELVAMILMNST: -0.823 ± 0.32.
The same measure for HMHQPSSPHLLLCV: -0.47 ± 0.46; for NGTFSCGERVIEINDDSLSD: 0.486 ± 0.8.
With VFPMVFTKGNANVCHI, the amyloid nucleation score came to 0.886 ± 0.58.
The same measure for YINKKLGEAKGRDLLVRLGQ: 3.63 ± 0.07; for SGLIY: “inactive”.
The same measure for VPSQRNWFC: 0.007 ± 0.63.
The same measure for VGFGVFVV: 0.213 ± 0.24; for NACYRFILISSMVRLSFSVW: 0.389 ± 0.8.
As to SGLGGGFFSIVCYTHISVRE, the amyloid nucleation score was -0.069 ± 0.55.
Consider RFCSMSLSWNYDSC, for which the amyloid nucleation score was found to be 5.5 ± 0.079.
The same measure for LYTLTENRLRLYMIYAGLRW: -0.362 ± 0.5; for LVMVWFLNLVFCFGDFNSNR: 0.74 ± 0.18.
GLRQVGA: the amyloid nucleation score is -0.34 ± 0.79.
Substance GINISVLNMRQLFRLSAGSH yielded an amyloid nucleation score of 4.36 ± 0.086.
The same measure for YWCFAI: -0.349 ± 0.26.
On to VISSLSISCYDHSVYVKAVK, for which the amyloid nucleation score was 0.445 ± 0.33.
The same measure for NFKYHCRYWFFVFAKFKFHL: -1.42 ± 0.75.
The same measure for GVSSNGSLCWCVFMKVPAVC: 2.98 ± 0.078.
The same measure for WFFKTAMWVITT: 0.081 ± 1.1; for EMLFWVVGTMDVDWMPG: 0.508 ± 0.57; for SLAPQMLPCHFSWILDPCC: -0.01 ± 1.
HGHLHYLMNR: the amyloid nucleation score is -0.031 ± 1.
The same measure for IHMWYSDG: -1.25 ± 0.75; for FGFYFLVSGLCRCDLPFHVL: -0.757 ± 0.76.
The same measure for QGSNCLHYRLSIIS: -1.05 ± 1.1; for VCDVDTNVVTSNWTSCLFRK: “inactive”; for LSRNYFVSVLFFSTVRMALA: -0.433 ± 0.54.
For FASCRIVSRG, the amyloid nucleation score entry is “inactive”.
The same measure for SRKPSILNLRLALVSG: 0.43 ± 0.33.
The same measure for YCYVCDVNVYVYLTAIGNKF: 7.43 ± 0.085; for QSMSNACFVMGTRCITKRAA: 4.633 ± 0.044.
TCAGIV returned an amyloid nucleation score of 0.408 ± 0.41.
For DDIKIWFRATVHVVF, the amyloid nucleation score entry is “inactive”.
The same measure for KVLFTGFFANVGFSSSVRAN: -0.567 ± 1.1; for EGDMLILEF: -0.474 ± 1.
The same measure for DLTGGVRLRRWGWTSCSGNG: 0.404 ± 0.46; for LERFEH: 2.01 ± 0.24; for WVYRLMLTMLR: -0.055 ± 0.41.
The same measure for MSVLRSG: 0.526 ± 0.66.
Consider HKEEV, for which the amyloid nucleation score is 0.163 ± 0.53.
The same measure for AINLGSDYKWSGMAFVKG: 0.285 ± 1; for KNSLKVLLNRRLRVCGSQLN: -0.309 ± 0.45.
The same measure for IAKMSFAINNDIYNCRFIST: 2.46 ± 0.11; for RFDPNTAWNLTFSSSRCVAG: 0.91 ± 0.27; for NQLDTNSIMLVFLSNMMLGV: 3.81 ± 0.056.
The same measure for LSSFDSF: “inactive”; for KVMVRLGSNSAAKYFYVNRV: 3.84 ± 0.057.
As for SFSHGSDAIGNVYCDNIVYK, the amyloid nucleation score entry was “inactive”.
As for SLVTISFLGLFGSSSALVVA, the amyloid nucleation score was -0.114 ± 1.1.
In the case of SQISYEWDATIHQWLCKWFW, the amyloid nucleation score came to 8.355 ± 0.031.
As for ICFVFF, the amyloid nucleation score was -0.777 ± 1.
The same measure for WFMEILFVV: -0.383 ± 0.26; for WTSLSNVFRLTNMYTRVSKW: -0.55 ± 0.76; for TFFNNWMALKYRNYQFIMSG: “inactive”.
The same measure for LWPCSCFVRRCYECFEGDAG: 3.2 ± 0.057; for ITISLLLGHYDCCCVTLLQE: 7.263 ± 0.027.
The same measure for WLPLYMFQDQYLLKAPWISS: “inactive”; for YGDSWLFCYVE: -1.12 ± 0.64; for EFIDLVD: “inactive”.
As to LDIPNGNYVLMSYR, the amyloid nucleation score came to 0.32 ± 0.44.
LVSQLPVDFMVTFDILTVEI: the amyloid nucleation score was -0.184 ± 1.1.
The same measure for TYVHNKVCKNACNFSTLGPC: 0.143 ± 0.8; for NYITSSVCFCCSDPMYTPSR: 8.552 ± 0.031.
The same measure for IRMNIFASSTR: 3.11 ± 0.073; for MLCRMSAFRLGMRYDTRFLL: -0.064 ± 1.1.
Turning to ASEGVGCFV, the amyloid nucleation score entry was “inactive”.
For SVLIAQLDAAYGISVVRSPG, the amyloid nucleation score was 0.264 ± 0.18.
The same measure for HFLSFSMGWNSC: 4.82 ± 0.063.
The same measure for SSQGLPDNGTRPLGWKYR: 0.417 ± 0.4.
The same measure for HLTSKVTGASIKVTKVNYLD: -1.25 ± 0.64.
Substance EYMTMDELDWWSRQCFGWAQ registered an amyloid nucleation score of 1.64 ± 0.42.
The same measure for SLTFSGMP: “inactive”; for LLHYGGSFLAAKFRRMSCNE: 0.811 ± 0.66.
In the case of HFSFTPFRTWV, the amyloid nucleation score is -0.527 ± 0.27.
The same measure for NLWVCFWSDSCFT: 8.089 ± 0.045; for SMISM: 0.947 ± 0.3; for WMLWANIDPGDAPYREASAG: 4.06 ± 0.05.
For FSGIYESPMVLHMV, the amyloid nucleation score is -1.97 ± 0.62.
Consider SVYCSNNNTFDAFYVEWVFA, for which the amyloid nucleation score result is “inactive”.
Regarding LLSSLVFVVNFFAKGLRWLT, the amyloid nucleation score is -1.9 ± 0.62.
ILSNELFYLLYEW gave an amyloid nucleation score of 8.798 ± 0.079.
The same measure for SVSGTLFPGYCWGNGKAGHF: 1.56 ± 0.091; for TWGVLFAYSIEDCVGINYLG: 0.73 ± 0.18.
The same measure for VSGCV: -0.865 ± 0.54.
The same measure for GQNRKLLDLIYRMLGSLLWH: 0.309 ± 0.8.
For the substance TVNCSTCM, the amyloid nucleation score is -0.562 ± 0.19.
The same measure for RFNTCLDS: -0.005 ± 0.29; for MQTICSN: -1.13 ± 1; for FLYMQTMLCNSKVFQVSALC: “inactive”.
The same measure for GREPESF: 1.72 ± 0.13.
For DESIEYSDSGGSCSFPVSK, the amyloid nucleation score result was “inactive”.
The same measure for NGVCQNCR: “inactive”; for WCNALFDWMLVAVCGGYYVY: -0.502 ± 0.37; for FYKHMLVTATFSLMYITQDD: -0.404 ± 0.48.
The same measure for GDKVACKEIWTVNVYVNTLG: 0.229 ± 0.26.
The same measure for VRWTRFQALLYLK: “inactive”; for LREGCVTLLS: 0.27 ± 0.36; for MVHLRGIDVMSILDSYCESG: 0.544 ± 0.52.
Consider NRFYIWRSDRNYTLVACRSK, for which the amyloid nucleation score is -0.237 ± 0.79.
Turning to LYYLFSKFILRDETSSSQKK, the amyloid nucleation score entry was “inactive”.
The same measure for NNKFLQVSYS: -0.409 ± 0.78; for EVLSRDRSSAPFAVLLAGSR: 0.129 ± 0.76; for DYRMVYSCCMLGREGWRNTW: 5.606 ± 0.035.
The same measure for YRFRAIVNIYRCDVGFF: 6.36 ± 0.075; for HVFADERMDVGGSITVTARG: 0.164 ± 1.1.
